{"source": "patent US5308529A", "about": "“System for enhancing release of acids from anhydride precursors using esterase catalysts” (Lever Brothers Company, Division of Conopco, Inc., priority 1992, dated 1994)", "molecules": {"B1": {"name": "Papain: enzyme listed under Proteases in Table 1 (protein, UniProt P00784 134-345, looked up)", "Papain": "IPEYVDWRQKGAVTPVKNQGSCGSCWAFSAVVTIEGIIKIRTGNLNEYSEQELLDCDRRSYGCNGGYPWSALQLVAQYGIHYRNTYPYEGVQRYCRSREKGPYAAKTDGVRQVQPYNEGALLYSIANQPVSVVLEAAGKDFQLYRGGIFVGPCGNKVDHAVAAVGYGPNYILIKNSWGTGWGENGYIRIKRGTGNSYGVCGLYTSSFYPVKN"}, "B2": {"name": "Genex 8397: protease; mutant of subtilisin BPN' with MET50→PHE, ASN76→ASP, GLY169→ALA, GLN206→CYS, ASN218→SER (protein, UniProt P00782 108-382, looked up, variant M50F N76D G169A Q206C N218S)", "Subtilisin BPN'": "AQSVPYGVSQIKAPALHSQGYTGSNVKVAVIDSGIDSSHPDLKVAGGASFVPSETNPFQDNNSHGTHVAGTVAALDNSIGVLGVAPSASLYAVKVLGADGSGQYSWIINGIEWAIANNMDVINMSLGGPSGSAALKAAVDKAVASGVVVVAAAGNEGTSGSSSTVGYPAKYPSVIAVGAVDSSNQRASFSSVGPELDVMAPGVSICSTLPGNKYGAYSGTSMASPHVAGAAALILSKHPNWTNTQVRSSLENTTTKLGDSFYYGKGLINVQAAAQ"}, "B3": {"name": "Lipolase: lipase from Humicola lanuginosa gene expressed in Aspergillus oryzae, commercially available from NOVO Industri A/S (protein, UniProt O59952 23-291, looked up)", "Lipase": "EVSQDLFNQFNLFAQYSAAAYCGKNNDAPAGTNITCTGNACPEVEKADATFLYSFEDSGVGDVTGFLALDNTNKLIVLSFRGSRSIENWIGNLNFDLKEINDICSGCRGHDGFTSSWRSVADTLRQKVEDAVREHPDYRVVFTGHSLGGALATVAGADLRGNGYDIDVFSYGAPRVGNRAFAEFLTVQTGGTLYRITHTNDIVPRLPPREFGYSHSSPEYWIKSGTLVPVTRNDIVKIEGIDATGGNNQPNIPDIPAHLWYFGLIGTCL"}, "B4": {"name": "Heat Killed Lipolase: control: heat killed lipolase, i.e. no esterase present (protein, UniProt O59952 23-291, looked up)", "Lipase": "B3 Lipase", "modifications": "heat-inactivated", "notes": "control: heat killed lipolase, i.e. no esterase present"}, "B5": {"name": "Humicola languinosa: lipase ex Humicola lanuginosa (listed under Lipases) (protein, UniProt O59952 23-291, looked up)", "Lipase": "B3 Lipase"}}, "type_in_all_cases": "biochemical", "key": {"[1]": {"test": "Rate of benzoic acid formation from benzoic anhydride by enzymes with esterase activity (HPLC)", "conditions": "50 μM benzoic anhydride, -10 deg. C., pH 7, 5 mins, 60% glycerol/water", "protocol": "Standard reaction conditions for the rate determinations in Table 1 are as follows: 60% glycerol/water (w/w), 120 ppm hardness (2:1 Ca:Mg), 10 mM Triethanolamine adjusted to pH 7 with HCl, and […] benzoic anhydride. All incubations were at -10 deg. centigrade for 5 mins. Benzoic acid produced was measured by HPLC via an internal standard (acenaphthylene).\nVarious enzymes with esterase activity (lipases, esterases, proteases) were tested against benzoic anhydride to determine the rate of formation of acid. As a control, the effect on benzoic anhydride when no esterase was present (i.e., heat killed lipolase) was also measured."}, "[2]": {"test": "Enzymatic hydrolysis of benzoic anhydride at pH 5.00 and 10.0 (HPLC)", "conditions": "0.5 mM benzoic anhydride, 50% acetonitrile/water, room temperature, background hydrolysis subtracted", "protocol": "A 50% acetronitrile/water system was used in the presence of 120 ppm water hardness solution (2:1 calcium:magnesium), 0.5 mM benzoic anhydride, and 25 ppm acenaphthylene internal standard. The following buffer systems were utilized:\nFor pH 5.00: 10 mM sodium citrate, adjusted to pH 5.00 with 0.1 citric acid.\nFor pH 10.0: 10 mM triethanolamine, adjusted to pH 10.0 with 0.1M hydrochloric acid.\nAll reactions were run on a 10 mL scale at room temperature for a total of 5.00 min. The benzoic anhydride and internal standard were added from a stock solution which was 1.0M benzoic anhydride and […] acenaphthylene in 100% acetonitrile. A total of 5.0 μL of this stock was used (yielding a 1:2000 dilution) to make each reaction 0.5 mM benzoic anhydride and 25 ppm acenaphthylene. Benzoic acid produced was measured by HPLC (high pressure liquid chromatography) using the acenaphthylene internal standard as a reference."}, "[3]": {"test": "Enzymatic hydrolysis of phthalic anhydride", "conditions": "5.0 mM phthalic anhydride; 60.77 EU/g enzyme; room temperature, 50% acetonitrile/water", "protocol": "The reaction was carried out at room temperature in a mixed solvent system (50% acetonitrile/water). The buffer and water hardness concentration were identical to that used for the benzoic anhydride systems."}}, "data": [{"molecule": "B1", "values": [{"measurement": "Rate (uMol Benzoic Acid prod./enzyme unit/min)", "setting": "[1]; enzyme unit = esterase unit", "result": "6.2 E-3 uMol Benzoic Acid prod./enzyme"}]}, {"molecule": "B2", "values": [{"measurement": "Reaction over 5.00 min.", "setting": "[2]; pH 5.00, 60.0 EU/g. enzyme", "result": 22.34, "unit": "%"}, {"measurement": "Reaction over 5.00 min.", "setting": "[2]; pH 10.0, 3.04 EU/g. enzyme", "result": 63.23, "unit": "%"}, {"measurement": "Rate (μmol BA/EU/min)", "setting": "[3]", "result": "3.03 × 10^-3 μmol BA/EU/min"}]}, {"molecule": "B3", "values": [{"measurement": "Reaction over 5.00 min.", "setting": "[2]; pH 5.00, 50.0 EU/g. enzyme", "result": 33.30, "unit": "%"}, {"measurement": "Reaction over 5.00 min.", "setting": "[2]; pH 10.0, 15.0 EU/g. enzyme", "result": 86.06, "unit": "%"}]}, {"molecule": "B4", "values": [{"measurement": "Rate (uMol Benzoic Acid prod./enzyme unit/min)", "setting": "[1]; control, no unit assay printed", "result": "0 uMol Benzoic Acid prod./enzyme"}]}, {"molecule": "B5", "values": [{"measurement": "Rate (uMol Benzoic Acid prod./enzyme unit/min)", "setting": "[1]; enzyme unit = lipase unit", "result": "1.08 E-1 uMol Benzoic Acid prod./enzyme"}]}]}
